Experimental data as given in US20250248376A1 (University of Texas, published 2025).

T1: Contactin (mouse Cntn1) (mouse, UniProt P12960 21-1001)
T1 construct: whole, on cells; One entry covers both endogenous spinal cord Contactin and Contactin transfected into HEK cells; It was immunoprecipitated from lysates with anti-Contactin antibodies; also called Contactin/F3
T1 sequence (looked up): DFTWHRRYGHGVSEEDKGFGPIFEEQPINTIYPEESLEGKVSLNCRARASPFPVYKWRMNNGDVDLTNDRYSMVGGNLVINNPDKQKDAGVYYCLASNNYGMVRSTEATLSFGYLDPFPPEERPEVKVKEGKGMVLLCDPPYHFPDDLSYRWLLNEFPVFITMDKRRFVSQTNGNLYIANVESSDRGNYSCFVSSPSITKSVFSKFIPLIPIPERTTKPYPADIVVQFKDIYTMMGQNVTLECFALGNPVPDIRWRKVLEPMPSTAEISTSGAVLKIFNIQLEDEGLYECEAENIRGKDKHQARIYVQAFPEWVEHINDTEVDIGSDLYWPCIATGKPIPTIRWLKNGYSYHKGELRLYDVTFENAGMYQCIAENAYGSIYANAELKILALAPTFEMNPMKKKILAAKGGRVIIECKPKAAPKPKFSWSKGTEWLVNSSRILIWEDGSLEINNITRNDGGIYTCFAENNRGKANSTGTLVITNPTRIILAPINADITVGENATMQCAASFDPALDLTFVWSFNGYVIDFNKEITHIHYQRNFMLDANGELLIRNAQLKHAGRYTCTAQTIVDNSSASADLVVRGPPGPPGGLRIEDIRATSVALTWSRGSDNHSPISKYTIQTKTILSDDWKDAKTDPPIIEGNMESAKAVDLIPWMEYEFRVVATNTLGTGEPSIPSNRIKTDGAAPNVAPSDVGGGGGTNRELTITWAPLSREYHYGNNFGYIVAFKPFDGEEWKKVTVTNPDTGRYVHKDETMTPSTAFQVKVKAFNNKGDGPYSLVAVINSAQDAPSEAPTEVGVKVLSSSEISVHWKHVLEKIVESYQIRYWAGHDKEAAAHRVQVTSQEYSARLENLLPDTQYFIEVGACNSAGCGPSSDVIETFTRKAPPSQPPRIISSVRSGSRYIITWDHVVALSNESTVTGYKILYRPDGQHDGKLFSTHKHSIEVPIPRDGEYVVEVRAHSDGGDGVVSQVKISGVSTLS


Biological target: T1, Contactin (mouse Cntn1)
Test: co-IP with anti-Contactin antibodies from lysates of HEK cells co-transfected with Contactin, immunoblot for Cntnap1 (FIG. 17J)
Excerpt: After confirming the mutations, the wild-type Cntnap1, Cntnap1C^C324R or […] cDNAs and Contactin cDNA (MG50933-CF, SinoBiological) were co-transfected into HEK cells. Contactin surface expression was examined by immunostaining of live, non-permeabilized HEK cells followed by fixation and permeabilization and immunostaining with an anti-Cntnap1 antibody to detect the expression of Cntnap1. The wild-type Cntnap1 protein was readily localized at the cell surface of the HEK cells (FIGS. 17Ga, c), however, the surface localization of Cntnap1^C324R (FIGS. 17Ha, c), and Cntnap1^R765c (FIGS. 17Ia, c) mutant proteins was strongly affected. […] The Cntnap1 protein expression was mostly cytosolic in both Cntnap1^C324R or Cntnap1^R765C transfected HEK cells as was the Contactin localization. […] IP of cell lysates from HEK cells that co-expressed the wild-type Cntnap1, Cntnap1^C324R and Cntnap1^R765C proteins and Contactin was also carried out. The expression levels of these proteins were similar in HEK cells transfected with respective expression constructs (FIG. 17J, input).

Binder | level of Cntnap1 co-immunoprecipitated with Contactin, relative to wild-type Cntnap1 [%]
Cntnap1^C324R mutant expressed in HEK cells (site-directed mutant of pCMV-Cntnap1^Flag) (receptor, Co-transfected with Contactin cDNA; the co-IP was done on total cell lysates; also called Mouse Cntnap1^C324R clone; not shown: Flag tag inherited from pCMV-Cntnap1^Flag) WGYYGCNEELVGPLYARSLGASSYYGLFTTARFARLHGISGWSPRIGDPNPWLQIDLMKKHRIRAVATQGAFNSWDWVTRYMLLYGDRVDSWTPFYQKGHNATFFGNVNDSAVVRHDLHYHFTARYIRIVPLAWNPRGKIGLRLGIYGCPYTSSILYFDGDDAISYRFQRGASQSLWDVFAFSFKTEEKDGLLLHTEGSQGDYVTLELQGAHLLLHMSLGSSPIQPRPGHTTVSLGGVLNDLSWHYVRVDRYGRDANFTLDGYAHHFVLNGDFERLNLENEIFIGGLVGAARKNLAYRHNFRGRIENVIYNRINIAEMAVMRHSRITFEGNVAFRCLDPVPHPINFGGPHNFVQVPGFPRRGRLAVSFRFRTWDLTGLLLFSHLGDGLGHVELMLSEGQVNVSIAQTGRKKLQFAAGYRLNDGFWHEVNFVAQENHAVISIDDVEGAEVRVSYPLLIRTGTSYFFGGCPKPASRWGCHSNQTAFHGCMELLKVDGQLVNLTLVEFRKLGYFAEVLFDTCGITDRCSPNMCEHDGRCYQSWDDFICYCELTGYKGVTCHEPLYKESCEAYRLSGKYSGNYTIDPDGSGPLKPFVVYCDIRENRAWTVVRHDRLWTTRVTGSSMDRPFLGAIQYWNASWEEVSALANASQHCEQWIEFSCYNSRLLNTAGGYPYSFWIGRNEEQHFYWGGSQPGIQRCACGLDQSCVDPALHCNCDADQPQWRTDKGLLTFVDHLPVTQVVVGDTNRSNSEAQFFLRPLRCYGDRNSWNTISFHTGAALRFPPIRANHSLDVSFYFRTSAPSGVFLENMGGPFCRWRRPYVRVELNTSRDVVFAFDIGNGDENLTVHSDDFEFNDDEWHLVRAEINVKQARLRVDHRPWVLRPMPLQTYIWLVYDQPLYVGSAELKRRPFVGCLRAMRLNGVTLNLEGRANASEGTFPNCTGHCTHPRFPCFHGGRCVERYSYYTCDCDLTAFDGPYCNHDIGGFFETGTWMRYNLQSALRSAAREFSHMLSRPVPGYEPGYVPGYDTPGYVPGYHGPGYRLPEYPRPGRPVPGYRGPVYNVTGEEVSFSFSTNSAPAVLLYVSSFVRDYMAVLIKEDGTLQLRYQLGTSPYVYQLTTRPVTDGQPHSVNITRVYRNLFIQVDYFPLTEQKFSLLVDSQLDSPKALYLGRVMETGVIDPEIQRYNTPGFSGCLSGVRFNNVAPLKTHFRTPRPMTAELAEAMRVQGELSESNCGAMPRLVSEVPPELDPWYLPPDFPYYHDDGWIAILLGFLVAFLLLGLVGMLVLFYLQNHRYKGSYHTNEPKATHDSHPGGKAPLPPSGPAQAPAPTPAPTQLPTPAPAPAPAPASGPGPRDQNLPQILEESRSE | 60
Cntnap1^R765C mutant expressed in HEK cells (site-directed mutant of pCMV-Cntnap1^Flag) (receptor, Co-transfected with Contactin cDNA; the co-IP was done on total cell lysates; also called Mouse Cntnap1^R765C clone; not shown: Flag tag inherited from pCMV-Cntnap1^Flag) WGYYGCNEELVGPLYARSLGASSYYGLFTTARFARLHGISGWSPRIGDPNPWLQIDLMKKHRIRAVATQGAFNSWDWVTRYMLLYGDRVDSWTPFYQKGHNATFFGNVNDSAVVRHDLHYHFTARYIRIVPLAWNPRGKIGLRLGIYGCPYTSSILYFDGDDAISYRFQRGASQSLWDVFAFSFKTEEKDGLLLHTEGSQGDYVTLELQGAHLLLHMSLGSSPIQPRPGHTTVSLGGVLNDLSWHYVRVDRYGRDANFTLDGYAHHFVLNGDFERLNLENEIFIGGLVGAARKNLAYRHNFRGCIENVIYNRINIAEMAVMRHSRITFEGNVAFRCLDPVPHPINFGGPHNFVQVPGFPRRGRLAVSFRFRTWDLTGLLLFSHLGDGLGHVELMLSEGQVNVSIAQTGRKKLQFAAGYRLNDGFWHEVNFVAQENHAVISIDDVEGAEVRVSYPLLIRTGTSYFFGGCPKPASRWGCHSNQTAFHGCMELLKVDGQLVNLTLVEFRKLGYFAEVLFDTCGITDRCSPNMCEHDGRCYQSWDDFICYCELTGYKGVTCHEPLYKESCEAYRLSGKYSGNYTIDPDGSGPLKPFVVYCDIRENRAWTVVRHDRLWTTRVTGSSMDRPFLGAIQYWNASWEEVSALANASQHCEQWIEFSCYNSRLLNTAGGYPYSFWIGRNEEQHFYWGGSQPGIQRCACGLDQSCVDPALHCNCDADQPQWRTDKGLLTFVDHLPVTQVVVGDTNCSNSEAQFFLRPLRCYGDRNSWNTISFHTGAALRFPPIRANHSLDVSFYFRTSAPSGVFLENMGGPFCRWRRPYVRVELNTSRDVVFAFDIGNGDENLTVHSDDFEFNDDEWHLVRAEINVKQARLRVDHRPWVLRPMPLQTYIWLVYDQPLYVGSAELKRRPFVGCLRAMRLNGVTLNLEGRANASEGTFPNCTGHCTHPRFPCFHGGRCVERYSYYTCDCDLTAFDGPYCNHDIGGFFETGTWMRYNLQSALRSAAREFSHMLSRPVPGYEPGYVPGYDTPGYVPGYHGPGYRLPEYPRPGRPVPGYRGPVYNVTGEEVSFSFSTNSAPAVLLYVSSFVRDYMAVLIKEDGTLQLRYQLGTSPYVYQLTTRPVTDGQPHSVNITRVYRNLFIQVDYFPLTEQKFSLLVDSQLDSPKALYLGRVMETGVIDPEIQRYNTPGFSGCLSGVRFNNVAPLKTHFRTPRPMTAELAEAMRVQGELSESNCGAMPRLVSEVPPELDPWYLPPDFPYYHDDGWIAILLGFLVAFLLLGLVGMLVLFYLQNHRYKGSYHTNEPKATHDSHPGGKAPLPPSGPAQAPAPTPAPTQLPTPAPAPAPAPASGPGPRDQNLPQILEESRSE | 10
